B1: Fibroblast growth factor 14 (Homo sapiens), Q92915-2 (parent)
chain: MVKPVPLFRRTDFKLLLCNHKDLFFLRVSKLLDCFSPKSMWFLWNIFSKGTHMLQCLCGKSLKKNKNPTDPQLKGIVTRLYCRQGYYLQMHPDGALDGTKDDSTNSTLFNLIPVGLRVVAIQGVKTGLYIAMNGEGYLYPSELFTPECKFKESVFENYYVIYSSMLYRQQESGRAWFLGLNKEGQAMKGNRVKKTKPAAHFLPKPLEVAMYREPSLHDVGETVPKPGVTPSKSTSASAIMNGGKPVNKSKTT

Variants of: B1
Settings: with scn8a_human SCN8A

| Variant | effect of a mutation on the interaction |
| --- | --- |
| MVKPVPLFRRTDFKLLLCNHKDLFFLRVSKLLDCFSPKSMWFLWNIFSKGTHMLQCLCGKSLKKNKNPTDPQLKGIVTRLYCRQGYYLQMHPDGALDGTKDDSTNSTLFNLIPVGLRVVAIQGVKTGLYIAMNGEGYLYPSELFTPECKFKESVFENNYNIYSSMLYRQQESGRAWFLGLNKEGQAMKGNRVKKTKPAAHFLPKPLEVAMYREPSLHDVGETVPKPGVTPSKSTSASAIMNGGKPVNKSKTT [Y158N;V160N] | decreasing interaction strength |
